Patent US20050244448A1

Biological target: total elastase activity of relaxin-stimulated cultured SUI vaginal fibroblasts
Experiment: cell-based or functional assay

alpha-1 antitrypsin (from UniProt P01009 25-418)
inhibition of total elastase activity: 98%
